The text below walks through data of patent US20150160214A1, “Quantitation of Cellular Adhesion Dynamics Across Immobilized Receptors Under Rheological Shear Flow” (Mayo Foundation for Medical Education and Research, priority 2013, published 2015).

Where “and” joins values, the source holds several entries; their conditions need not be identical. Equal values may be shown once.

Series [1] can be described thus: Secondary structure contribution calculated from CD-spectra (CDNN). In kind it is physicochemical. The protocol: Fluorescence and circular dichroism spectra of A1 and of RCAM A1 were measured to compare the basic spectroscopic properties of the two protein variants (FIG. 13). The fluorescence spectrum of native A1 has a relatively low intensity with λmax of ˜345 nm. In presence of 2 M GdnHCl the fluorescence intensity increases as the interior of the protein becomes solvent accessible and a red shift of the spectrum to ˜351 nm occurs. […] Nevertheless, RCAM A1 is still retains significant secondary structure content in solution; the distribution of which is summarized in Table 1. In the near UV, the CD of disulfide-intact A1 show a well-defined spectral banding pattern between 260 and 300 nm indicating significant tertiary structure content that is absent in RCAM A1.
Urea and GdnHCl induced unfolding of A1 and of RCAM A1 at 25° Celsius was monitored via CD at 222 nm on an Aviv Biomedical Model 420C circular dichroism spectrometer. A 1 mm quartz cuvette and protein concentrations of 5 or 10 μM were used. Samples were equilibrated in their urea or GdnHCl containing buffer at 25° Celsius overnight. CD-signal was averaged for 5 to 10 min using an integration time of 1 s. CD-spectra were measured at 20° Celsius using 0.1 or 1 mm quartz cells with a step width of 1 nm between 190 and 260 nm with an integration time of 20 s and a bandwidth of 1 nm. CD-spectra in the near UV range (260-360 nm) were recorded using a 5 cm quartz cell with a 120 s integration time. Transition curves and protein spectra were corrected for the CD Signal of the corresponding buffer.

Series [2] can be described thus: Temperature-induced unfolding by fluorescence and CD, irreversible models (Example 1). It is filed as physicochemical. The protocol: A1-1261 and A1-1238 were thermally unfolded using intrinsic protein tyrosine and tryptophan fluorescence with an excitation λ=280 nm and emission λ=359 nm and CD monitored at λ=222 nm. […] As the scan rate increases, the midpoint of the transition (apparent TM) also increases.
Thermal transitions were analyzed in terms of the observed midpoint of the transition, apparent TM, and also by a two-state irreversible model or a three-state irreversible model as described in the Supplement and the calculated parameters are summarized in FIGS. 5A to 5D. […] If the protein unfolding was at equilibrium and reversible, this apparent TM would remain constant at all scan rates. Extrapolation of the TM to a scan rate of 0° Celsius/min provides an indication of where reversible unfolding would occur under equilibrium conditions; 50° Celsius for A1-1238 and 48° Celsius for A1-1261 from both CD and fluorescence data. For the second transition observed by fluorescence that occurs with A1-1238, the TM extrapolates to about 73° Celsius in the limit of zero scan rate. Analysis by the two-state and three-state irreversible models yields an R^2>0.99 for both fluorescence and CD and a transition temperature, T*, that is independent of the temperature scan rate. In addition, the enthalpies of the transitions are independent of scan rate within experimental error FIG. 5B. FIGS. 5C and 5D show the resulting average T* and ΔHT*^‡±the standard deviation obtained from the fitting of the primary thermal transitions in FIG. 4A to 4D for CD and fluorescence and a total average for both methods. […] However, the unfolding enthalpy was statistically larger for A1-1238 (250±15 kJ/mol) than for A1-1261 (204±10 kJ/mol). The average T* and ΔHT*^‡ observed in the second fluorescence transition of A1-1238 is 89.1±2.2° Celsius and 360±14 kJ/mol.
Prior to all spectroscopic thermal scans, protein samples were equilibrated at 10° Celsius for 15 min to obtain a stable baseline. CD thermal scans between 10 and 95° Celsius were recorded at λ=222 nm using a protein concentration of 1 or 2 μM in a 1 cm quartz cell under moderate stirring. Scan rates were 0.5, 1.0, 1.5 and 2.0° Celsius/min. Integration time for each data point was 20 s with a 1 nm bandwidth. Fluorescence thermal scans between 10 and 95 Celsius were recorded at an emission λ=359 nm after excitation λ=280 nm or λ=295 nm using 2 μM protein in a 1 cm quartz cell with moderate stirring. Scan rates were 0.4 or 0.6, 0.9, 1.6 and 2.0° Celsius/min. At each temperature, relative fluorescence intensity was collected for 4 s and averaged. Thermal scans in the presence of N-terminal peptide at 2.0° Celsius/min were preceded by 1 h incubations at 20° Celsius with 0.02-300 μM peptide.
For an irreversible two-state transition, unfolding is kinetically controlled by a first order rate constant that varies with temperature according to the Arrhenius equation (Atkins:1994). In our analysis the inventor refers to the intermediate state as the final irreversible state for all thermal transitions involving the unfolding of A1-1261 in the absence of peptide when monitored by fluoresence, CD and DSC and for A1-1238 when monitored by CD and DSC. The following equations derived below are equally valid for any two state irreversible transitions The activation energy in going from N->I is ΔG^‡=−RT ln k^‡ and the inventor expands ln k^‡ as a function of temperature in terms of Δβ=(β−β*)=(1/RT−1/RT*) using a Taylor series, where T̂* is the temperature at which ΔG^‡=0.

[3] abbreviates: calculated from CD-spectra, CDNN.
The mark [4] stands for this setting: covalently linked N-terminal peptide.

Consider “A1-1238: Recombinant human vWF A1 domain, amino acids Q1238-P1471, with N-terminal 6×His-Tag, disulfide intact”, for which, in series [1] (setting [3]), the “% α-Helix” value is given as 38.0% and the “% β-sheet” value is listed as 15.6%. In series [1] (β-turns and random coil structure), the “% Remainder” value is recorded as 46.4%. Moreover, the “Apparent TM extrapolated to a scan rate of 0° Celsius/min, primary transition” value in series [2] (CD and fluorescence data) was 50 ° Celsius and 49.8±1.2 ° Celsius. Also, in series [2] (average of CD and fluorescence), the “Transition temperature T*, primary unfolding transition” value is listed as 63.9±0.6 ° Celsius and the “Unfolding enthalpy ΔHT*‡, primary unfolding transition” value was 59.8 ± 3.59 kcal/mol. In series [2] (setting [4]), the “Average T*, second fluorescence transition” value was 89.1±2.2 ° Celsius and the “Average ΔHT*‡, second fluorescence transition” value stood at 86 ± 3.35 kcal/mol. Moreover, in series [2] (fluorescence), the “Apparent TM extrapolated to zero scan rate, second transition by fluorescence” value was “about 73 ° Celsius”.
